Results from patent publication US20140005119A1, “COMPOSITIONS AND METHODS FOR INHIBITING THE ACTIVITY OF P110a MUTANT PROTEINS” (Case Western Reserve University, priority 2012, published 2014).

Key:
[1] = biological target: T1, interaction between IRS1 and DABD p110α E545K (Homo sapiens, UniProt P35568); assay: Co-IP from lysate of cells co-transfected with Myc-IRS1 and FLAG-tagged ΔABD p110α E545K, incubated with stapled peptide; assay type: binding
T1 construct: expressed in transfected cells
T1 sequence (P35568 1-1242): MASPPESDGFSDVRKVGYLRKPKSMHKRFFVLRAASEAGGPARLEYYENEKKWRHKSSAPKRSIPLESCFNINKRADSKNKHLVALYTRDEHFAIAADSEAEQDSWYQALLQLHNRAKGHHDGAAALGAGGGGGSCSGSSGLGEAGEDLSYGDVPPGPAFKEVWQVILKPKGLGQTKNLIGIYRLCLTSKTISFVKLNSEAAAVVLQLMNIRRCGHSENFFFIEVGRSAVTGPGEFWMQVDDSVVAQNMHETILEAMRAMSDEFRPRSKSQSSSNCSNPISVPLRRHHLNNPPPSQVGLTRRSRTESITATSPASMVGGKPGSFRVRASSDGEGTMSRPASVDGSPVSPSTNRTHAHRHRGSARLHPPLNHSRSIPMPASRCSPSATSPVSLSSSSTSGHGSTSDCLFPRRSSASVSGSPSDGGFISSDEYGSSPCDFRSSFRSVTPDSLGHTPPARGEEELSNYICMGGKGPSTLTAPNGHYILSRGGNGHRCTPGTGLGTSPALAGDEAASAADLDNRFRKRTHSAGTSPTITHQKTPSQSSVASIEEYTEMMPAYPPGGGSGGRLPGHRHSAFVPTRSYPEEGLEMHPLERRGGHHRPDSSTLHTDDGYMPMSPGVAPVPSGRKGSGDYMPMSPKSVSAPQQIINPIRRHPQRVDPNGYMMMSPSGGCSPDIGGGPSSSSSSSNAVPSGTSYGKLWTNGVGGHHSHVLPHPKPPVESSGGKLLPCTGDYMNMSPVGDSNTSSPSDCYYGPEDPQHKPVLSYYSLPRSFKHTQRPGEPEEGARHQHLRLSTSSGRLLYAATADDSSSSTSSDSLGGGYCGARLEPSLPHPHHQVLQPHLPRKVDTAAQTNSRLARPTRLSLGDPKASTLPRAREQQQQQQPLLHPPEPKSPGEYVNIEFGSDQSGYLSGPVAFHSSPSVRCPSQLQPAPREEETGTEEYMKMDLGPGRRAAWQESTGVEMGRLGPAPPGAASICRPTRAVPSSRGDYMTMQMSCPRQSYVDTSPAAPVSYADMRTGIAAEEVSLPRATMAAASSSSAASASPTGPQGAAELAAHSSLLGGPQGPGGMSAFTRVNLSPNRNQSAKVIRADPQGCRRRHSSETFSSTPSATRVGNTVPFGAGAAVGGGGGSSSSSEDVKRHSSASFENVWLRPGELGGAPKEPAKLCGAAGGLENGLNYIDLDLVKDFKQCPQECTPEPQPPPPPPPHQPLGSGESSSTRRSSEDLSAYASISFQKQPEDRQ
Description: FIGS. 3(A-M) illustrate: (A, B) Mapping peptides (P3, SEQ ID NO: 1; P4 SEQ ID NO: 2; P5, SEQ ID NO: 3; P6, SEQ ID NO: 4) derived from mutant p110α that inhibit interaction between IRS1 and p110α E545K. The indicated peptides were added into cell lysates made from the p110α E545K 3×FLAG KI cells. Cell lysates were immunoprecipitated with beads conjugated with anti-FLAG antibodies and then blotted with anti-IRS1 antibodies. (C) Immunoblots of cell lysates made from the p110α E545K 3×FLAG KI cells. Cell lysates were immunoprecipitated with beads conjugated with anti-FLAG antibodies and then blotted with the indicated antibodies. […] (J, K) Immunoblot and graph of purified recombinant p110α E545K mutant proteins mixed with the indicated components and quantified using an in vitro lipid kinase assay. […]
For Co-immunoprecipitation (Co-IP), cells were harvested, washed with PBS, and then lysed in IP buffer (50 mMTris [pH 7.4], 150 mMNaCl, 5 mMEDTA [pH 8.0], 0.5% NP40, 1 mM PMSF, complete Protease Inhibitor Cocktail tablet [Roche]; supplemented with phosphatase inhibitors [1 mM Na3VO4, 20 mM NaF, 0.1 mM b-glycerophosphate, 20 mM sodium pyrophosphate] when necessary). […] Lysates were then cleared by centrifugation (14,000 rpm, 10 min) and protein concentration in supernatants was determined with a BCA protein assay kit (Pierce, Rockford, Ill.). […]

[2] = biological target: T2, recombinant p110α E545K mutant protein (Homo sapiens, UniProt P42336, E545K); assay: In vitro lipid kinase assay; assay type: biochemical; conditions: either alone or in the presence of IRS1
T2 construct: 6×His; made in house; host or cells: Sf9 insect cells (baculovirus)
Description: FIGS. 3(A-M) illustrate: (A, B) Mapping peptides (P3, SEQ ID NO: 1; P4 SEQ ID NO: 2; P5, SEQ ID NO: 3; P6, SEQ ID NO: 4) derived from mutant p110α that inhibit interaction between IRS1 and p110α E545K. The indicated peptides were added into cell lysates made from the p110α E545K 3×FLAG KI cells. Cell lysates were immunoprecipitated with beads conjugated with anti-FLAG antibodies and then blotted with anti-IRS1 antibodies. (C) Immunoblots of cell lysates made from the p110α E545K 3×FLAG KI cells. Cell lysates were immunoprecipitated with beads conjugated with anti-FLAG antibodies and then blotted with the indicated antibodies. (D) Immunoblots of cell lysate of Myc-tagged IRS1 plasmid, which co-transfected an ABD domain deletion construct of the FLAG-tagged p110α E545K mutant (ΔABD), incubated with the indicated amount of stapled p110α mutant peptides, and then immunoprecipitated with anti-FLAG antibodies and blotted with the indicated antibodies. (J, K) Immunoblot and graph of purified recombinant p110α E545K mutant proteins mixed with the indicated components and quantified using an in vitro lipid kinase assay. (L, M) Immunoblots of the indicated cell lines serum-starved, stimulated with 1 μg/ml insulin for 30 min, and then treated with or without the indicated peptides. Cell lysates were blotted with the indicated antibodies. All error bars show mean±SEM. *p<0.05, **p<0.001, t test. […]

T2 sequence (P42336 whole entry E545K): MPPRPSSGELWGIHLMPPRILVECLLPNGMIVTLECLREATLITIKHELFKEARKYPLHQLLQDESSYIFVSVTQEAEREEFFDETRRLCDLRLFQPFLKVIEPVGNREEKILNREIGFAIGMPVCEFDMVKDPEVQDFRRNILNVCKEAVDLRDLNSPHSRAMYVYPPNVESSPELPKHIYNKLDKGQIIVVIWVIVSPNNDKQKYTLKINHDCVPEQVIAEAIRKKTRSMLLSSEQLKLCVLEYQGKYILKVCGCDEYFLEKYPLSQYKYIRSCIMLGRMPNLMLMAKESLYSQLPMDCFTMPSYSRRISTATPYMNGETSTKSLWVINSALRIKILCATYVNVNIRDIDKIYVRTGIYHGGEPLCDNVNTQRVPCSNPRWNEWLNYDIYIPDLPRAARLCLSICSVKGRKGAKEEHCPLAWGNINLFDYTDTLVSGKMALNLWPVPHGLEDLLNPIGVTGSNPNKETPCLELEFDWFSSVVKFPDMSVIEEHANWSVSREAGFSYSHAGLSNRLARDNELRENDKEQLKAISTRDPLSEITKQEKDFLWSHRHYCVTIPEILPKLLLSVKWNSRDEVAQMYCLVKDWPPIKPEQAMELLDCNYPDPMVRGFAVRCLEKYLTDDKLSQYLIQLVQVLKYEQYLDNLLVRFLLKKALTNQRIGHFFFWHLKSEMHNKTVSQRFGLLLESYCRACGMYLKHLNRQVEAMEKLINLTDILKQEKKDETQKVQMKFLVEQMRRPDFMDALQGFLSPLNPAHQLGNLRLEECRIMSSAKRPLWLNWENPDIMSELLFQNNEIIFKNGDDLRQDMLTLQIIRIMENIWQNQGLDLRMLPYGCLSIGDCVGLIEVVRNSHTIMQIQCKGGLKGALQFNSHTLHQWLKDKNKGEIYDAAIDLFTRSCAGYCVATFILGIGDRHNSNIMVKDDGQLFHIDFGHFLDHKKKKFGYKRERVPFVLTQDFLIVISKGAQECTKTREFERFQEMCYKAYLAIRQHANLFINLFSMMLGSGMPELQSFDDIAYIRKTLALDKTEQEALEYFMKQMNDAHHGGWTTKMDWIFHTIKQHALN
T2 sequence (P27986 322-600 partner limits assumed): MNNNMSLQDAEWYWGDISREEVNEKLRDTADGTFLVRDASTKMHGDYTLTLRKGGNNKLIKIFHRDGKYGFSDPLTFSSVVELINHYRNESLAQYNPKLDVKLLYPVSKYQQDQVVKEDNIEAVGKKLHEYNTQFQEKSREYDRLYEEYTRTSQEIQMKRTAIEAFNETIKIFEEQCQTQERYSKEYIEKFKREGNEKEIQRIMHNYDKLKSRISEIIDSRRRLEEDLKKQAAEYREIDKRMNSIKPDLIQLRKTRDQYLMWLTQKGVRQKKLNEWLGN

## H2N-SEITKQEK-D^549-FLW-S^553-HRHYC-COOH [stapled mutant peptide]
[1]
  inhibition of the interaction between IRS1 and DABD p110α E545K: inhibited
[2]
  kinase activity of recombinant p110α: no effect
